Source: the supplement of paper PMC5998384

Columns and labels:
HeLa Kyoto [1] = experiment: solubility in G1/S (NP-40 vs SDS abundance) (log2 ratio); higher = more soluble; settings: cell cycle stage: G1/S
HeLa Kyoto [2] = experiment: melting temperature (median over replicates), in situ; higher = more thermally stable
HeLa Kyoto [3] = experiment: solubility change mitosis vs G1/S (difference of NP-40 vs SDS log2 ratios) (log2 ratio difference); higher = more soluble in mitosis
HeLa Kyoto [4] = experiment: thermal stability score vs G1/S (z-score of summed log2 fold changes over temperatures); higher = more thermally stable than in G1/S
[5] = cell cycle stage: early G1 (4.5 h after nocodazole release)
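For melting temperature (median over replicates), in situ in this document: HeLa Kyoto cells synchronized by double thymidine or nocodazole block, proteins quantified by TMT10plex mass spectrometry, three independent biological replicates.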
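For solubility change mitosis vs G1/S (difference of NP-40 vs SDS log2 ratios) in this document: synchronized HeLa Kyoto cells (double thymidine block for G1/S, nocodazole release for mitosis), protein amounts in NP-40 versus SDS lysates quantified by mass spectrometry, three biological replicates.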
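For solubility in G1/S (NP-40 vs SDS abundance) in this document: HeLa Kyoto cells arrested at G1/S by double thymidine block, proteins quantified by TMT10plex mass spectrometry in mild NP-40 versus SDS extracts, three biological replicates.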
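For thermal stability score vs G1/S (z-score of summed log2 fold changes over temperatures) in this document: synchronized HeLa Kyoto cells, proteins quantified by TMT10plex mass spectrometry, three biological replicates, mitosis taken 0.5 h after nocodazole release, G1/S directly after double thymidine block.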

Sequence of PUDP (chain, as listed by the source): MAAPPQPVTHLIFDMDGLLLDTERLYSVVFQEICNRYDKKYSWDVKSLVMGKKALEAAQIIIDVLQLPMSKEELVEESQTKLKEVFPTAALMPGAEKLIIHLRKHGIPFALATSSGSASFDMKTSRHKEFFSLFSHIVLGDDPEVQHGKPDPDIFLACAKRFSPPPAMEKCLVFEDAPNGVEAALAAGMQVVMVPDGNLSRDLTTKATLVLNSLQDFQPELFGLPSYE
Sequence of NEK7 (chain, as listed by the source): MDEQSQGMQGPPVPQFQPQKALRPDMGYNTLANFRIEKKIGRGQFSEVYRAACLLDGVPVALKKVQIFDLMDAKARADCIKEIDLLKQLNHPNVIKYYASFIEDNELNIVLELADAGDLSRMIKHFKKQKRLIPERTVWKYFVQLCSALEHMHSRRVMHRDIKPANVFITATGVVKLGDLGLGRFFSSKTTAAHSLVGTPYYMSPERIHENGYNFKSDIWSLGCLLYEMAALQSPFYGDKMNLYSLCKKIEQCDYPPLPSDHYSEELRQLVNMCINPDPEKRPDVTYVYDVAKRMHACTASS

Substance | solubility in G1/S (log2) (HeLa Kyoto [1]) | melting temperature (HeLa Kyoto [2]; cell cycle stage: G1/S) [°C] | melting temperature (HeLa Kyoto [2]; cell cycle stage: mitosis) [°C] | solubility change mitosis (log2) (HeLa Kyoto [3]) | thermal stability score (HeLa Kyoto [4]; [5]) | thermal stability score (HeLa Kyoto [4]; cell cycle stage: mitosis)
MERASLIQKAKLAEQAERYEDMAAFMKGAVEKGEELSCEERNLLSVAYKNVVGGQRAAWRVLSSIEQKSNEEGSEEKGPEVREYREKVETELQGVCDTVLGLLDSHLIKEAGDAESRVFYLKMKGDYYRYLAEVATGDDKKRIIDSARSAYQEAMDISKKEMPPTNPIRLGLALNFSVFHYEIANSPEEAISLAKTTFDEAMADLHTLSEDSYKDSTLIMQLLRDNLTLWTADNAGEEGGEAPQEPQS [SFN] | 0.311 | 52.6 | 53.1 | 0.358 | -2.86 | -2.25
NEK7 | 0.62 | 49.1 | 49.4 | -0.165 | 1.38 | 1.14
MFTLAEVASLNDIQPTYRILKPWWDVFMDYLAVVMLMVAIFAGTMQLTKDQVVCLPVLPSPVNSKAHTPPGNAEVTTNIPKMEAATNQDQDGRTTNDISFGTSAVTPDIPLRATYPRTDFALPNQEAKKEKKDPTGRKTNLDFQQYVFINQMCYHLALPWYSKYFPYLALIHTIILMVSSNFWFKYPKTCSKVEHFVSILGKCFESPWTTKALSETACEDSEENKQRITGAQTLPKHVSTSSDEGSPSASTPMINKTGFKFSAEKPVIEVPSMTILDKKDGEQAKALFEKVRKFRAHVEDSDLIYKLYVVQTVIKTAKFIFILCYTANFVNAISFEHVCKPKVEHLIGYEVFECTHNMAYMLKKLLISYISIICVYGFICLYTLFWLFRIPLKEYSFEKVREESSFSDIPDVKNDFAFLLHMVDQYDQLYSKRFGVFLSEVSENKLREISLNHEWTFEKLRQHISRNAQDKQELHLFMLSGVPDAVFDLTDLDVLKLELIPEAKIPAKISQMTNLQELHLCHCPAKVEQTAFSFLRDHLRCLHVKFTDVAEIPAWVYLLKNLRELYLIGNLNSENNKMIGLESLRELRHLKILHVKSNLTKVPSNITDVAPHLTKLVIHNDGTKLLVLNSLKKMMNVAELELQNCELERIPHAIFSLSNLQELDLKSNNIRTIEEIISFQHLKRLTCLKLWHNKIVTIPPSITHVKNLESLYFSNNKLESLPVAVFSLQKLRCLDVSYNNISMIPIEIGLLQNLQHLHITGNKVDILPKQLFKCIKLRTLNLGQNCITSLPEKVGQLSQLTQLELKGNCLDRLPAQLGQCRMLKKSGLVVEDHLFDTLPLEVKEALNQDINIPFANGI [LRRC8D] | 0.141 | 53.7 | 53 | -0.126 | 0.491 | 0.22
MAGGEDRGDGEPVSVVTVRVQYLEDTDPFACANFPEPRRAPTCSLDGALPLGAQIPAVHRLLGAPLKLEDCALQVSPSGYYLDTELSLEEQREMLEGFYEEISKGRKPTLILRTQLSVRVNAILEKLYSSSGPELRRSLFSLKQIFQEDKDLVPEFVHSEGLSCLIRVGAAADHNYQSYILRALGQLMLFVDGMLGVVAHSDTIQWLYTLCASLSRLVVKTALKLLLVFVEYSENNAPLFIRAVNSVASTTGAPPWANLVSILEEKNGADPELLVYTVTLINKTLAALPDQDSFYDVTDALEQQGMEALVQRHLGTAGTDVDLRTQLVLYENALKLEDGDIEEAPGAGGRRERRKPSSEEGKRSRRSLEGGGCPARAPEPGPTGPASPVGPTSSTGPALLTGPASSPVGPPSGLQASVNLFPTISVAPSADTSSERSIYKARFLENVAAAETEKQVALAQGRAETLAGAMPNEAGGHPDARQLWDSPETAPAARTPQSPAPCVLLRAQRSLAPEPKEPLIPASPKAEPIWELPTRAPRLSIGDLDFSDLGEDEDQDMLNVESVEAGKDIPAPSPPLPLLSGVPPPPPLPPPPPIKGPFPPPPPLPLAAPLPHSVPDSSALPTKRKTVKLFWRELKLAGGHGVSASRFGPCATLWASLDPVSVDTARLEHLFESRAKEVLPSKKAGEGRRTMTTVLDPKRSNAINIGLTTLPPVHVIKAALLNFDEFAVSKDGIEKLLTMMPTEEERQKIEEAQLANPDIPLGPAENFLMTLASIGGLAARLQLWAFKLDYDSMEREIAEPLFDLKVGMEQLVQNATFRCILATLLAVGNFLNGSQSSGFELSYLEKVSEVKDTVRRQSLLHHLCSLVLQTRPESSDLYSEIPALTRCAKVDFEQLTENLGQLERRSRAAEESLRSLAKHELAPALRARLTHFLDQCARRVAMLRIVHRRVCNRFHAFLLYLGYTPQAAREVRIMQFCHTLREFALEYRTCRERVLQQQQKQATYRERNKTRGRMITETEKFSGVAGEAPSNPSVPVAVSSGPGRGDADSHASMKSLLTSRPEDTTHNRRSRGMVQSSSPIMPTVGPSTASPEEPPGSSLPSDTSDEIMDLLVQSVTKSSPRALAARERKRSRGNRKSLRRTLKSGLGDDLVQALGLSKGPGLEV [FHOD1] | 0.185 | 48 | 48.1 | -0.13 | 1.05 | 2.72
MPMYQVKPYHGGGAPLRVELPTCMYRLPNVHGRSYGPAPGAGHVQEESNLSLQALESRQDDILKRLYELKAAVDGLSKMIQTPDADLDVTNIIQADEPTTLTTNALDLNSVLGKDYGALKDIVINANPASPPLSLLVLHRLLCEHFRVLSTVHTHSSVKSVPENLLKCFGEQNKKQPRQDYQLGFTLIWKNVPKTQMKFSIQTMCPIEGEGNIARFLFSLFGQKHNAVNATLIDSWVDIAIFQLKEGSSKEKAAVFRSMNSALGKSPWLAGNELTVADVVLWSVLQQIGGCSVTVPANVQRWMRSCENLAPFNTALKLLK [AIMP2] | 0.321 | 48.9 | 49.6 | 0.104 | 0.153 | 1.22
MSRGPEEVNRLTESTYRNVMEQFNPGLRNLINLGKNYEKAVNAMILAGKAYYDGVAKIGEIATGSPVSTELGHVLIEISSTHKKLNESLDENFKKFHKEIIHELEKKIELDVKYMNATLKRYQTEHKNKLESLEKSQAELKKIRRKSQGSRNALKYEHKEIEYVETVTSRQSEIQKFIADGCKEALLEEKRRFCFLVDKHCGFANHIHYYHLQSAELLNSKLPRWQETCVDAIKVPEKIMNMIEEIKTPASTPVSGTPQASPMIERSNVVRKDYDTLSKCSPKMPPAPSGRAYTSPLIDMFNNPATAAPNSQRVNNSTGTSEDPSLQRSVSVATGLNMMKKQKVKTIFPHTAGSNKTLLSFAQGDVITLLIPEEKDGWLYGEHDVSKARGWFPSSYTKLLEENETEAVTVPTPSPTPVRSISTVNLSENSSVVIPPPDYLECLSMGAAADRRADSARTTSTFKAPASKPETAAPNDANGTAKPPFLSGENPFATVKLRPTVTNDRSAPIIR [BAIAP2L1] | 0.326 | 52.7 | 54.1 | -0.0797 | 1.74 | 1.36
MRVAGAAKLVVAVAVFLLTFYVISQVFEIKMDASLGNLFARSALDTAARSTKPPRYKCGISKACPEKHFAFKMASGAANVVGPKICLEDNVLMSGVKNNVGRGINVALANGKTGEVLDTKYFDMWGGDVAPFIEFLKAIQDGTIVLMGTYDDGATKLNDEARRLIADLGSTSITNLGFRDNWVFCGGKGIKTKSPFEQHIKNNKDTNKYEGWPEVVEMEGCIPQKQD [FAM3C] | 0.634 | 54.2 | 53.2 | 0.0546 | 0.362 | 0.765
MLRAKNQLFLLSPHYLRQVKESSGSRLIQQRLLHQQQPLHPEWAALAKKQLKGKNPEDLIWHTPEGISIKPLYSKRDTMDLPEELPGVKPFTRGPYPTMYTFRPWTIRQYAGFSTVEESNKFYKDNIKAGQQGLSVAFDLATHRGYDSDNPRVRGDVGMAGVAIDTVEDTKILFDGIPLEKMSVSMTMNGAVIPVLANFIVTGEEQGVPKEKLTGTIQNDILKEFMVRNTYIFPPEPSMKIIADIFEYTAKHMPKFNSISISGYHMQEAGADAILELAYTLADGLEYSRTGLQAGLTIDEFAPRLSFFWGIGMNFYMEIAKMRAGRRLWAHLIEKMFQPKNSKSLLLRAHCQTSGWSLTEQDPYNNIVRTAIEAMAAVFGGTQSLHTNSFDEALGLPTVKSARIARNTQIIIQEESGIPKVADPWGGSYMMECLTNDVYDAALKLINEIEEMGGMAKAVAEGIPKLRIEECAARRQARIDSGSEVIVGVNKYQLEKEDAVEVLAIDNTSVRNRQIEKLKKIKSSRDQALAERCLAALTECAASGDGNILALAVDASRARCTVGEITDALKKVFGEHKANDRMVSGAYRQEFGESKEITSAIKRVHKFMEREGRRPRLLVAKMGQDGHDRGAKVIATGFADLGFDVDIGPLFQTPREVAQQAVDADVHAVGISTLAAGHKTLVPELIKELNSLGRPDILVMCGGVIPPQDYEFLFEVGVSNVFGPGTRIPKAAVQVLDDIEKCLEKKQQSV [MUT] | 0.0667 | 50.6 | 50.3 | -0.0993 | -0.0875 | 0.531
MGPRSRERRAGAVQNTNDSSALSKRSLAARGYVQDPFAALLVPGAARRAPLIHRGYYVRARAVRHCVRAFLEQIGAPQAALRAQILSLGAGFDSLYFRLKTAGRLARAAVWEVDFPDVARRKAERIGETPELCALTGPFERGEPASALCFESADYCILGLDLRQLQRVEEALGAAGLDAASPTLLLAEAVLTYLEPESAAALIAWAAQRFPNALFVVYEQMRPQDAFGQFMLQHFRQLNSPLHGLERFPDVEAQRRRFLQAGWTACGAVDMNEFYHCFLPAEERRRVENIEPFDEFEEWHLKCAHYFILAASRGDTLSHTLVFPSSEAFPRVNPASPSGVFPASVVSSEGQVPNLKRYGHASVFLSPDVILSAGGFGEQEGRHCRVSQFHLLSRDCDSEWKGSQIGSCGTGVQWDGRLYHTMTRLSESRVLVLGGRLSPVSPALGVLQLHFFKSEDNNTEDLKVTITKAGRKDDSTLCCWRHSTTEVSCQNQEYLFVYGGRSVVEPVLSDWHFLHVGTMAWVRIPVEGEVPEARHSHSACTWQGGALIAGGLGASEEPLNSVLFLRPISCGFLWESVDIQPPITPRYSHTAHVLNGKLLLVGGIWIHSSSFPGVTVINLTTGLSSEYQIDTTYVPWPLMLHNHTSILLPEEQQLLLLGGGGNCFSFGTYFNPHTVTLDLSSLSAGQ [LCMT2] | -0.0889 | 51.2 | 50.7 | -0.199 | -0.211 | -0.346
MPLKWKTSSPAIWKFPVPVLKTSRSTPLSPAYISLVEEEDQHMKLSLGGSEMGLSSHLQSSKAGPTRIFTSNTHSSVVLQGFDQLRLEGLLCDVTLMPGDTDDAFPVHRVMMASASDYFKAMFTGGMKEQDLMCIKLHGVSKVGLRKIIDFIYTAKLSLNMDNLQDTLEAASFLQILPVLDFCKVFLISGVTLDNCVEVGRIANTYNLTEVDKYVNSFVLKNFPALLSTGEFLKLPFERLAFVLSSNSLKHCTELELFKATCRWLRLEEPRMDFAAKLMKNIRFPLMTPQELINYVQTVDFMRTDNTCVNLLLEASNYQMMPYMQPVMQSDRTAIRSDTTHLVTLGGVLRQQLVVSKELRMYDEKAHEWKSLAPMDAPRYQHGIAVIGNFLYVVGGQSNYDTKGKTAVDTVFRFDPRYNKWMQVASLNEKRTFFHLSALKGYLYAVGGRNAAGELPTVECYNPRTNEWTYVAKMSEPHYGHAGTVYGGVMYISGGITHDTFQKELMCFDPDTDKWIQKAPMTTVRGLHCMCTVGERLYVIGGNHFRGTSDYDDVLSCEYYSPILDQWTPIAAMLRGQSDVGVAVFENKIYVVGGYSWNNRCMVEIVQKYDPDKDEWHKVFDLPESLGGIRACTLTVFPPEETTPSPSRESPLSAP [KLHL13] | -0.13 | 52.2 | 50.4 | -0.128 | -0.01 | 0.108
HECTD1 | -0.212 | 50.4 | 50.4 | -0.16 | 0.479 | -0.0167
PUDP | 0.454 | 54.5 | 55.5 | -0.0216 | 1.26 | 0.384
MKI67 | -1.82 | 49.4 | 52 | 1.29 | 5.66 | 0.979
